Reference: the supplement of paper PMC10567573
± gives the standard deviation.

Experiment: protein stability index of a GFP-peptide fusion (GPS, HEK-293T) (PSI 1-6); higher = more stable
Conditions: c terminus: a fixed tail appended
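Also: 24-mer peptide tiles fused after GFP, lentivirally expressed, FACS-sorted into six equal bins by GFP/DsRed ratio, decoded by Illumina sequencing, PSI is the read-weighted mean bin number.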

Sequence	protein stability index (treatment: DMSO)	protein stability index (treatment: MLN4924 1 uM, 8 h)
FTIHNYSHSRERPYKCVQPDCGKA [PLAGL1]	2.86 ± 0.45	2.89 ± 0.37
FVQILLALHHVHTHLILHRDLKTQ [NEK8]	2.98 ± 0.064	3.01 ± 0.2
FVSRYKLMRHMATHSPQKSHQCAH [PLAGL1]	2.7 ± 0.37	2.55 ± 0.38
FWDLFRSKDNMRTRIMIGLTLVFF [SLC2A12]	2.53 ± 0.55	2.67 ± 0.39
FYFKLTDLYKKVKKNSSPPLSLYG [CRY1]	2.7 ± 0.51	2.69 ± 0.49
GAGLPQFQSISLRKIQFNFPYFRS [CLCN6]	2.13 ± 0.26	2.21 ± 0.41
GAIAQSSIYPMEVLKTRMALRKTG [SLC25A25]	3.54 ± 0.11	3.74 ± 0.28
GALYGITLIPTCKFYTWLWGVFYY [SCD]	2.39 ± 0.41	–
GAYGNLKRLYDKAAKMYHQLKKCE [SMG5]	2.45 ± 1	2.325 ± 0.014
GDKLKFLSMLLTLKCEMNQMSGEP [ACSBG2]	2.38 ± 1.1	2.56 ± 1
GEEALSLQALDPQQCVDKESSLGS [SLC22A15]	5.36 ± 0.33	5.36 ± 0.32
GEENFEVVKQFVTGIIDSLTISPK [MATN2]	3.18 ± 0.2	3.32 ± 0.46
GEPLALPLDAGEYCVPRGNRRRFR [BEX1]	4.8 ± 0.27	4.99 ± 0.25
GFVFGTTLIMLLSLAAFSVISVVS [RTN3]	3.2 ± 0.33	2.61 ± 0.58
GFVMVPFEYRGEQHKTCMLNATSK [EDNRA]	2.24 ± 0.43	2.75 ± 0.37
GGAGKGRTPSAFPQTPAAPPATLG [EHMT1]	4.6 ± 0.13	4.79 ± 0.059
GGFGQVYKVRHVHWKTWLAIKCSP [RIPK4]	2.35 ± 0.85	2.05 ± 0.32
GGRAYQALHCPTGTEYTCKVYPVQ [TRIB3]	2.73 ± 0.3	2.76 ± 0.33
GHAQDLMDGLPPGDSNQLAWFDTD [CTNNB1]	4.93 ± 0.31	4.7 ± 0.27
GHGNKVLCMDWCKDKRRIVSSSQD [GNB5]	3.64 ± 0.28	3.85 ± 0.45
GHGTRKRVPLGRLELLEEVLALGL [RSAD1]	2.15 ± 0.21	2.3 ± 0.51
GIPWEAGARQISYSIPEELEKGSF [PCDHGA10]	4.24 ± 0.059	3.87 ± 0.34
GIRQITSDDFCTFQMVLEGGVCCT [GFOD1]	2.18 ± 0.21	2.22 ± 0.4

Sequence	protein stability index (treatment: DMSO)	protein stability index (treatment: MLN4924 1 uM, 8 h)
GKEDSTLQLLREENRALQQLLEQK [CBY2]	4.81 ± 0.23	4.84 ± 0.38
GKLLLRLPSLRTVSSSVIEQLFFV [NR2F2]	2.81 ± 0.6	2.83 ± 0.34
GLAFFTFPNIASATKFKQLYRSRM [HMOX1]	2.39 ± 0.78	1.98 ± 0.34
GLAGYLSGYDGTFLFQKPGDKYEH [POMT2]	2.62 ± 0.7	2.91 ± 0.6
GLDSPPLYPSAPILGGSGPVRKLY [ESRRG]	3.37 ± 0.13	3.49 ± 0.24
GLGLEDADWTQGLPWRFEELLTCS [TEX19]	2.42 ± 0.47	2.76 ± 0.62
GPQSRELTLKVLRSSSCGDTELLG [C2CD2L]	3.47 ± 0.28	3.59 ± 0.2
GPRPPAGELGSIGDHERAIDFSPY [CEBPB]	4.15 ± 0.25	4.28 ± 0.21
GPTSSNPRKRHREDSDVEMVEDDS [MLH1]	5.32 ± 0.13	5.22 ± 0.6
GQRDRKAEHWKHKKEESGRERKKN [PBXIP1]	5.08 ± 0.12	5.4 ± 0.15
GQVAEDRFPESHLPIQTPGAFLRT [TLE6]	3.53 ± 0.48	3.99 ± 0.38
GRCIHAGCDRIIGSKKKFDKCMVC [ADAMTS4]	3.66 ± 0.41	3.56 ± 0.15
GRCTVRDFIHRHCQDQNVPVENFF [SDE2]	2.51 ± 0.4	2.72 ± 0.049
GRDRNLAPDEKRSNVRWDHESVCK [LUC7L3]	4.61 ± 0.41	4.55 ± 0.2
GSCEDEPMDSTMDDAVAGDFALIN [ATE1]	5.25 ± 0.25	5.44 ± 0.16
GSELKDSIPVTELSASGPFESHDL [POMP]	5.28 ± 0.34	5.18 ± 0.57
GSGQNEESPRKRKKATEAIDSLRK [FBXO28]	5.11 ± 0.2	5.17 ± 0.2
GSLCSPWAAPRVGPLPPAPAMVRI [YPEL3]	2.95 ± 0.15	3.07 ± 0.45
GSLGFEPVYVSCIAQDTCTTTDHS [SPAG8]	3.37 ± 0.35	3.64 ± 0.17
GSSPKSKTKWTKEDGHRTSTSAVP [ADD1]	4.96 ± 0.17	4.81 ± 0.25
GSTNLTGLFFPPQLNGTANDTAGP [NFE2L1]	3.93 ± 0.14	4 ± 0.25
GSYSSTMNGHQNGLDSPPLYPSAP [ESRRG]	4.07 ± 0.23	4.3 ± 0.14
GTARYMSINTHLGKEQSRRDDLEA [CSNK1G3]	4.75 ± 0.42	4.63 ± 0.16

Sequence	protein stability index (treatment: DMSO)	protein stability index (treatment: MLN4924 1 uM, 8 h)
GTLCIGAAAFSQCEEWSFFHAYYY [KCNK9]	2.58 ± 0.53	2.9 ± 0.66
GTTMASGGRFRCPSCRHEVVLDRH [TRIM55]	2.08 ± 0.41	2.12 ± 0.22
GTVFQELNKLYPTHACREYLKNLP [TPH1]	2.46 ± 0.34	2.38 ± 0.26
GVSANASKAWHQKSHFQNSREWSG [PBXIP1]	3.22 ± 0.33	3.23 ± 0.3
GYNDYTINVWDVLKGSRVSILFGH [GNB5]	2.28 ± 0.39	2.3 ± 0.37
GYRTSAVASGLQFDVETRHVFIGD [WDFY2]	2.86 ± 0.31	3.15 ± 0.36
GYVPSNYVERKNSLKKGSLVKNLK [NCK2]	3.96 ± 0.16	3.89 ± 0.19
HAAAVNGDKGALQRLIVGNSALKD [INVS]	4.29 ± 0.25	4.29 ± 0.32
HAGKKGKLSEHLRYCDSILREMLS [BRD3]	2.16 ± 0.41	2.21 ± 0.3
HAYFRGHSPSCLARVTGELTMTFP [FCHO1]	2.21 ± 0.52	2.23 ± 0.13
HCGVLEFVADEGICYLPHWMMQNL [UFD1]	2.57 ± 0.59	2.13 ± 0.39
HCLDQVGLFRKSGVKSRIQALRQM [DLC1]	2.48 ± 0.36	2.4 ± 0.25
HCPESGEEAVILLEDLERELDEPQ [ZSCAN9]	5.55 ± 0.24	5.46 ± 0.44
HCTTVDGQRQLMVPARDGTSCKLT [ADAMTSL2]	4.41 ± 0.2	4.44 ± 0.11
HDELLAEHIKSLLIKNNSLPRKRQ [INTS3]	5 ± 0.17	4.98 ± 0.2
HFERRDNMNDNFLEGEEENELTLN [CHGB]	5.53 ± 0.06	5.61 ± 0.21
HGHNIGKKMSCQQFIANLDQLNDG [PSD2]	3.26 ± 0.24	3.29 ± 0.16
HGLPFLPGTSFKDSTKTAFHRSQT [EFHC1]	3.53 ± 0.15	3.63 ± 0.087
HHAALNGHVEMVNLLLAKGANINA [ANKRD44]	2.51 ± 0.4	2.89 ± 0.2
HHAQTSKTERINALELLGATFVDK [FEM1C]	3.83 ± 0.12	3.86 ± 0.31
HKTAGKRYVYRFVCDLQSLLGYTP [ETS1]	3.08 ± 1	2.66 ± 0.57
HLARHAVACFLTRGDLWISWEEGM [CRY1]	3.01 ± 0.72	2.98 ± 0.47
HLRIHTGEKPYKCTHCSKSFRQRA [ZNF449]	2.83 ± 0.43	3.11 ± 0.38

Sequence	protein stability index (treatment: DMSO)	protein stability index (treatment: MLN4924 1 uM, 8 h)
HMIQGAGSLEKALPIIQSNQVSSN [DLC1]	4.22 ± 0.23	4.27 ± 0.24
HPFLYLSLEISPQNVDVNVHPTKH [MLH1]	–	2.37 ± 0.34
HQTLKCSALATQYMHCVNHAKQSM [CHCHD3]	2.1 ± 0.22	2.29 ± 0.17
HRILLLAISLTKCLESTKLLADLK [MIA2]	2.73 ± 0.35	3.339 ± 0.011
HSTSLKVPLARSLQISEELLSRNQ [LCOR]	4 ± 0.24	3.97 ± 0.099
HTFAGDDCQAGLNFADEDEAQAFR [WAS]	5.26 ± 0.18	4.92 ± 0.38
HVDPEEPWSPCSARFITDFLDNGY [ADAMTS4]	2.57 ± 0.39	2.88 ± 0.71
HVGDFARDLAARWKKLVLVDRNTR [ELOA2]	2.39 ± 0.29	2.86 ± 0.34
HVTHWMGQPFNSDDRNTACHHGLV [DLC1]	2.51 ± 0.28	2.92 ± 0.31
HYICPRLGGIGFSSCIVCLFVGLY [SLC6A17]	2.39 ± 0.54	2.3 ± 0.21
IAKYSDGASKAAGVFGFFATIVFA [CMTM3]	2.86 ± 0.57	2.74 ± 0.41
IALYFVSKKFKNCFQSCLCCCCYQ [EDNRA]	3.19 ± 1.1	2.13 ± 1.4
IDIVAIIPYFITLGTELAERQGNG [KCNA3]	2.97 ± 0.38	3.29 ± 0.59
IEKWVILEKDFSIYGGELGPMMKL [ACSBG2]	2.56 ± 0.71	2.38 ± 0.44
IEMFKSITHSTVGSKGEKDLGASS [EHMT1]	4.23 ± 0.15	3.85 ± 0.36
IGWFPSNYVLEEVDEAAAESPSFL [NCK2]	3.93 ± 0.24	4.13 ± 0.23
IGWKTVRMYPFQIHSIALSTFASL [CDS2]	2.69 ± 0.65	2.65 ± 0.45
IIALIALSVGQYNCPGQYTFSMPS [CD69]	3.51 ± 0.45	3.3 ± 0.48
IIESFTELARIVLLRHRMNWLGRP [RAB40A]	3.18 ± 0.72	2.79 ± 0.47
IIKICDFGFAQILIPGDAYTDYVA [CDKL4]	2.6 ± 0.59	2.81 ± 0.95
IIKKVAEVALDKGCSQFRLAVLDW [SAT2]	2.77 ± 0.4	2.82 ± 0.6
